System: MCF10A
Test: percent viability (nuclei count relative to siNT); higher = more viable cells
Details: 20 nM; 72 h
Experimental: (§1)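 After 72 h, cells were fixed and stained with Hoechst and anti-fibrillarin, and nucleoli per nucleus were counted with CellProfiler. Values are plate-adjusted percent effect for the one-nucleolus and 5+ nucleoli phenotypes, normalised to siNT (0%) and to the positive controls siNOL11 or siKIF11 (100%), as the mean of biological triplicates. Percent viability is the nuclei count relative to siNT.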

| Sequence | percent viability |
| --- | --- |
| CUGCAGCCACUUGGGGAACUGGU [hsa-miR-7156-3p] | 57.4% |
| UCGUGUCCCUCUUGUCCACAG [hsa-miR-6774-3p] | 70% |
| UGUUCCUCUGUCUCCCAGAC [hsa-miR-4326] | 32.4% |
| GUGGCUGCACUCACUUCCUUC [hsa-miR-647] | 46% |
| GAGAAAUGCUGGACUAAUCUGC [hsa-miR-5680] | 93.7% |
| CAACAAAUCCCAGUCUACCUAA [hsa-miR-7-2-3p] | 104% |
| UCAGCUACUACCUCUAUUAGG [hsa-miR-5690] | 105% |
| AAGUAGUUGGUUUGUAUGAGAUGGUU [hsa-miR-1244] | 44.6% |
| GAAUACGUCUGGUUGAUCC [hsa-miR-6082] | 186% |
| ACAGGCGGCUGUAGCAAUGGGGG [hsa-miR-3937] | 33.1% |
| AUGCCUCCCCCGGCCCCGCAG [hsa-miR-6836-3p] | 41.9% |
| CUGGCAGGGGGAGAGGUA [hsa-miR-7150] | 43.9% |
| UGAGCCCCUGUGCCGCCCCCAG [hsa-miR-1225-3p] | 98.1% |
| UUGUGCUUGAUCUAACCAUGU [hsa-miR-218-5p] | 151% |
| UAGCUUAUCAGACUGAUGUUGA [hsa-miR-21-5p] | 121% |
| UACUGCAGACGUGGCAAUCAUG [hsa-miR-509-3-5p] | 26.5% |
| UCUCUGCUCUGCUCUCCCCAG [hsa-miR-6728-3p] | 28.9% |
| CGGGGCCAGAGCAGAGAGC [hsa-miR-6845-5p] | 53.6% |
| UAAGUGCUUCCAUGCUU [hsa-miR-302e] | 93.6% |
| CAUCUUACUGGGCAGCAUUGGA [hsa-miR-200b-5p] | 73.7% |

| Sequence | percent viability |
| --- | --- |
| GUCCUAGGAGGCUCCUCUG [hsa-miR-5571-3p] | 66.3% |
| GGGAGUGCAGGGCAGGGUUUC [hsa-miR-504-3p] | 36% |
| AUAAAGCUAGAUAACCGAAAGU [hsa-miR-9-3p] | 44.1% |
| CUGGGGGUGGGGGGCUGGGCGU [hsa-miR-6803-5p] | 86.6% |
| AGGGUAAGCUGAACCUCUGAU [hsa-miR-555] | 32.4% |
| CACAUAUGAAGUGAGCCAGCAC [hsa-miR-5580-3p] | 56.3% |
| ACCUCCUGUGUGCAUGGAUUA [hsa-miR-660-3p] | 37.2% |
| AAACAAACAUGGUGCACUUCUU [hsa-miR-495-3p] | 93.6% |
| AAAAACCACAAUUACUUUUGCACCA [hsa-miR-548t-3p] | 157% |
| CCGGGAGAAGGAGGUGGCCUGG [hsa-miR-6746-5p] | 50.3% |
| UACUUGGAAAGGCAUCAGUUG [hsa-miR-890] | 21% |
| AGCCGCGGGGAUCGCCGAGGG [hsa-miR-3648] | 88.3% |
| AAAGUAGCUGUACCAUUUGC [hsa-miR-562] | 83.9% |
| GGUGGGCUUCCCGGAGGG [hsa-miR-4417] | 77.8% |
| UUCCACUGCCACUACCUAAUUU [hsa-miR-6509-3p] | 56.2% |
| ACUGGACUUGGAGUCAGGA [hsa-miR-378e] | 26.4% |
| UGAGCCCUGUCCUCCCGCAG [hsa-miR-1233-3p] | 63.8% |
| AGGUGCUCCAGGCUGGCUCACA [hsa-miR-3907] | 4.87% |
| CGGCCCCACGCACCAGGGUAAGA [hsa-miR-874-5p] | 85.9% |
| GAAAUCAAGCGUGGGUGAGACC [hsa-miR-551b-5p] | 57.5% |

| Sequence | percent viability |
| --- | --- |
| GUGAGUAGUGGCGCGCGGCGGC [hsa-miR-6869-5p] | 32.4% |
| UUUGGUCCCCUUCAACCAGCUA [hsa-miR-133b] | 52.5% |
| UAAAAACUGCAAUUACUUUUA [hsa-miR-548aj-3p] | 115% |
| CCCUGCUGCCUUCACCUGCCAG [hsa-miR-6893-3p] | 50.3% |
| AUCUGACCUGAUGAAGGU [hsa-miR-4256] | 11.7% |
| AGUGGCACAUGUUUGUUGUGAG [hsa-miR-891a-3p] | 32.1% |
| UUCAAGUAAUUCAGGUG [hsa-miR-1297] | 121% |
| CGUGUUCACAGCGGACCUUGAU [hsa-miR-124-5p] | 77.3% |
| GCCCUGACCUGUCCUGUUCUG [hsa-miR-4732-3p] | 64.3% |
| GGAGGCGCAGGCUCGGAAAGGCG [hsa-miR-3197] | 41.9% |
| UGAUGAUACAGGUGGAGGUAG [hsa-miR-3682-3p] | 31.5% |
| UGUGACUUCUCCCCUGCCACAG [hsa-miR-6820-3p] | 32.3% |
| GGUCCAGAGGGGAGAUAGGUUC [hsa-miR-198] | 51.6% |
| AGGUAGAAUGAGGCCUGACAU [hsa-miR-4650-3p] | 33.4% |
| CACAUUACACGGUCGACCUCU [hsa-miR-323a-3p] | 49.9% |
| AACUCCAAACACUCAAAACUCA [hsa-miR-3145-5p] | 119% |
| UAUACCUCAGUUUUAUCAGGUG [hsa-miR-875-5p] | 119% |
| CUGGGAGGUGUGAUAUUGUGGU [hsa-miR-3689c] | 9.66% |
| GAAGACUUCUUGGAUUACAGGGG [hsa-miR-8087] | 112% |
| CUGGGAGGUCAAGGCUGCAGU [hsa-miR-1273h-5p] | 38.1% |

System: MCF10A
Test: 5+ nucleoli phenotype percent effect (relative to siNT 0% and siKIF11 100%); higher = more cells with five or more nucleoli
Details: 20 nM; 72 h
Experimental: as §1

| Sequence | 5+ nucleoli phenotype percent effect |
| --- | --- |
| CUGCAGCCACUUGGGGAACUGGU [hsa-miR-7156-3p] | -7.7% |
| UCGUGUCCCUCUUGUCCACAG [hsa-miR-6774-3p] | 58.8% |
| UGUUCCUCUGUCUCCCAGAC [hsa-miR-4326] | -25.5% |
| GUGGCUGCACUCACUUCCUUC [hsa-miR-647] | -9.97% |
| GAGAAAUGCUGGACUAAUCUGC [hsa-miR-5680] | 27.3% |
| CAACAAAUCCCAGUCUACCUAA [hsa-miR-7-2-3p] | 4.35% |
| UCAGCUACUACCUCUAUUAGG [hsa-miR-5690] | 15.5% |
| AAGUAGUUGGUUUGUAUGAGAUGGUU [hsa-miR-1244] | -0.297% |
| GAAUACGUCUGGUUGAUCC [hsa-miR-6082] | 67.8% |
| ACAGGCGGCUGUAGCAAUGGGGG [hsa-miR-3937] | -33.4% |
| AUGCCUCCCCCGGCCCCGCAG [hsa-miR-6836-3p] | -0.9% |
| CUGGCAGGGGGAGAGGUA [hsa-miR-7150] | 0.85% |
| UGAGCCCCUGUGCCGCCCCCAG [hsa-miR-1225-3p] | 19.9% |
| UUGUGCUUGAUCUAACCAUGU [hsa-miR-218-5p] | 35.8% |
| UAGCUUAUCAGACUGAUGUUGA [hsa-miR-21-5p] | 11.7% |
| UACUGCAGACGUGGCAAUCAUG [hsa-miR-509-3-5p] | -30.4% |
| UCUCUGCUCUGCUCUCCCCAG [hsa-miR-6728-3p] | 19.2% |
| CGGGGCCAGAGCAGAGAGC [hsa-miR-6845-5p] | 11.6% |
| UAAGUGCUUCCAUGCUU [hsa-miR-302e] | 65.3% |
| CAUCUUACUGGGCAGCAUUGGA [hsa-miR-200b-5p] | 0.989% |
| GUCCUAGGAGGCUCCUCUG [hsa-miR-5571-3p] | -30% |
| GGGAGUGCAGGGCAGGGUUUC [hsa-miR-504-3p] | -22.6% |
| AUAAAGCUAGAUAACCGAAAGU [hsa-miR-9-3p] | -46.1% |
| CUGGGGGUGGGGGGCUGGGCGU [hsa-miR-6803-5p] | 16% |
| AGGGUAAGCUGAACCUCUGAU [hsa-miR-555] | -11.2% |
| CACAUAUGAAGUGAGCCAGCAC [hsa-miR-5580-3p] | -31.6% |
| ACCUCCUGUGUGCAUGGAUUA [hsa-miR-660-3p] | -17.5% |
| AAACAAACAUGGUGCACUUCUU [hsa-miR-495-3p] | -10.6% |
| AAAAACCACAAUUACUUUUGCACCA [hsa-miR-548t-3p] | 39.3% |
| CCGGGAGAAGGAGGUGGCCUGG [hsa-miR-6746-5p] | 61.4% |
